Tested on: peptide library, one residue held at a place counted from the S/T acceptor
Test: relative phosphorylation of the sub-library (ratio to the mean residue at this position); higher = residue favoured
Conditions: human
Method in brief: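 Purified recombinant kinases were reacted in 384-well plates with biotinylated degenerate peptide sub-libraries, each having one residue fixed at one position around a central Ser/Thr. The reaction mix contained 50 μM peptide plus 50 μM ATP spiked with γ-32P-ATP and ran for 90 min under kinase-specific conditions. Relative sub-library phosphorylation, taken from densitometry of phosphorimaged streptavidin membrane spots, is a ratio to the mean residue at that position.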

Chain of CHEK1, construct: Full length (O14757 whole entry, looked up): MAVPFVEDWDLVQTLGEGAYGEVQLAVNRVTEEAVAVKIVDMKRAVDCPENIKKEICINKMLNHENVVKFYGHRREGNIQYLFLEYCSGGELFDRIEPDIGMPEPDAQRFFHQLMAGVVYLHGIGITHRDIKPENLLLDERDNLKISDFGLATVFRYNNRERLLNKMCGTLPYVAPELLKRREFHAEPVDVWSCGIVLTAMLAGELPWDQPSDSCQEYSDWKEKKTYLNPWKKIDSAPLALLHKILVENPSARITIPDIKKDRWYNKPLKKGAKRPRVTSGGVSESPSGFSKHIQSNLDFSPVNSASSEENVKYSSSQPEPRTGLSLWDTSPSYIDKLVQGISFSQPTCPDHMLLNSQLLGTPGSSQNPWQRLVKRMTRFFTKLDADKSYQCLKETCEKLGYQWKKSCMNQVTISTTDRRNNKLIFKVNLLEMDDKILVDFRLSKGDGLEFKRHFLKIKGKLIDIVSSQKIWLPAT

CHEK1, construct: Full length (from UniProt O14757)
relative phosphorylation (A fixed, at +1): 0.806 | relative phosphorylation (A fixed, at +2): 1.04 | relative phosphorylation (A fixed, at +3): 0.824 | relative phosphorylation (A fixed, at +4): 0.997 | relative phosphorylation (A fixed, at -1): 0.779 | relative phosphorylation (A fixed, at -2): 1.18 | relative phosphorylation (A fixed, at -3): 0.579 | relative phosphorylation (A fixed, at -4): 1.17 | relative phosphorylation (A fixed, at -5): 0.706 | relative phosphorylation (D fixed, at +1): 1.03 | relative phosphorylation (D fixed, at +2): 1.19 | relative phosphorylation (D fixed, at +3): 1.4 | relative phosphorylation (D fixed, at +4): 1.19 | relative phosphorylation (D fixed, at -1): 1.06 | relative phosphorylation (D fixed, at -2): 0.387 | relative phosphorylation (D fixed, at -3): 0.353 | relative phosphorylation (D fixed, at -4): 0.714 | relative phosphorylation (D fixed, at -5): 0.379 | relative phosphorylation (E fixed, at +1): 0.981 | relative phosphorylation (E fixed, at +2): 0.932 | relative phosphorylation (E fixed, at +3): 1.01 | relative phosphorylation (E fixed, at +4): 0.882 | relative phosphorylation (E fixed, at -1): 0.709 | relative phosphorylation (E fixed, at -2): 0.977 | relative phosphorylation (E fixed, at -3): 0.853 | relative phosphorylation (E fixed, at -4): 1.15 | relative phosphorylation (E fixed, at -5): 0.261 | relative phosphorylation (F fixed, at +1): 1.43 | relative phosphorylation (F fixed, at +2): 0.719 | relative phosphorylation (F fixed, at +3): 0.731 | relative phosphorylation (F fixed, at +4): 0.754 | relative phosphorylation (F fixed, at -1): 0.637 | relative phosphorylation (F fixed, at -2): 1.16 | relative phosphorylation (F fixed, at -3): 0.39 | relative phosphorylation (F fixed, at -4): 0.817 | relative phosphorylation (F fixed, at -5): 2.06 | relative phosphorylation (G fixed, at +1): 1.21 | relative phosphorylation (G fixed, at +2): 0.978 | relative phosphorylation (G fixed, at +3): 1.16 | relative phosphorylation (G fixed, at +4): 1.18 | relative phosphorylation (G fixed, at -1): 0.915 | relative phosphorylation (G fixed, at -2): 0.619 | relative phosphorylation (G fixed, at -3): 0.685 | relative phosphorylation (G fixed, at -4): 0.811 | relative phosphorylation (G fixed, at -5): 0.331 | relative phosphorylation (H fixed, at +1): 1.21 | relative phosphorylation (H fixed, at +2): 1.38 | relative phosphorylation (H fixed, at +3): 1.2 | relative phosphorylation (H fixed, at +4): 1.17 | relative phosphorylation (H fixed, at -1): 1.27 | relative phosphorylation (H fixed, at -2): 2.01 | relative phosphorylation (H fixed, at -3): 2.02 | relative phosphorylation (H fixed, at -4): 1.14 | relative phosphorylation (H fixed, at -5): 0.51 | relative phosphorylation (I fixed, at +1): 0.801 | relative phosphorylation (I fixed, at +2): 0.808 | relative phosphorylation (I fixed, at +3): 0.832 | relative phosphorylation (I fixed, at +4): 0.968 | relative phosphorylation (I fixed, at -1): 0.396 | relative phosphorylation (I fixed, at -2): 0.56 | relative phosphorylation (I fixed, at -3): 0.253 | relative phosphorylation (I fixed, at -4): 0.952 | relative phosphorylation (I fixed, at -5): 2.21 | relative phosphorylation (K fixed, at +1): 0.614 | relative phosphorylation (K fixed, at +2): 0.531 | relative phosphorylation (K fixed, at +3): 0.588 | relative phosphorylation (K fixed, at +4): 0.687 | relative phosphorylation (K fixed, at -1): 1.54 | relative phosphorylation (K fixed, at -2): 0.887 | relative phosphorylation (K fixed, at -3): 2.36 | relative phosphorylation (K fixed, at -4): 1.45 | relative phosphorylation (K fixed, at -5): 0.405 | relative phosphorylation (L fixed, at +1): 0.98 | relative phosphorylation (L fixed, at +2): 0.756 | relative phosphorylation (L fixed, at +3): 0.908 | relative phosphorylation (L fixed, at +4): 1.18 | relative phosphorylation (L fixed, at -1): 0.805 | relative phosphorylation (L fixed, at -2): 0.738 | relative phosphorylation (L fixed, at -3): 0.281 | relative phosphorylation (L fixed, at -4): 0.919 | relative phosphorylation (L fixed, at -5): 2.9 | relative phosphorylation (M fixed, at +1): 1.57 | relative phosphorylation (M fixed, at +2): 0.935 | relative phosphorylation (M fixed, at +3): 0.985 | relative phosphorylation (M fixed, at +4): 1.06 | relative phosphorylation (M fixed, at -1): 0.901 | relative phosphorylation (M fixed, at -2): 1.14 | relative phosphorylation (M fixed, at -3): 0.625 | relative phosphorylation (M fixed, at -4): 1.26 | relative phosphorylation (M fixed, at -5): 1.98 | relative phosphorylation (N fixed, at +1): 1.65 | relative phosphorylation (N fixed, at +2): 1.82 | relative phosphorylation (N fixed, at +3): 1.47 | relative phosphorylation (N fixed, at +4): 1.23 | relative phosphorylation (N fixed, at -1): 1.68 | relative phosphorylation (N fixed, at -2): 1.42 | relative phosphorylation (N fixed, at -3): 0.992 | relative phosphorylation (N fixed, at -4): 0.9 | relative phosphorylation (N fixed, at -5): 0.361 | relative phosphorylation (P fixed, at +1): 0.429 | relative phosphorylation (P fixed, at +2): 0.973 | relative phosphorylation (P fixed, at +3): 1.2 | relative phosphorylation (P fixed, at +4): 1.57 | relative phosphorylation (P fixed, at -1): 1.84 | relative phosphorylation (P fixed, at -2): 0.547 | relative phosphorylation (P fixed, at -3): 1.37 | relative phosphorylation (P fixed, at -4): 0.458 | relative phosphorylation (P fixed, at -5): 0.49 | relative phosphorylation (Q fixed, at +1): 1.19 | relative phosphorylation (Q fixed, at +2): 1.36 | relative phosphorylation (Q fixed, at +3): 1.15 | relative phosphorylation (Q fixed, at +4): 1.12 | relative phosphorylation (Q fixed, at -1): 1.36 | relative phosphorylation (Q fixed, at -2): 1.17 | relative phosphorylation (Q fixed, at -3): 0.995 | relative phosphorylation (Q fixed, at -4): 1.07 | relative phosphorylation (Q fixed, at -5): 0.422 | relative phosphorylation (R fixed, at +1): 0.599 | relative phosphorylation (R fixed, at +2): 0.692 | relative phosphorylation (R fixed, at +3): 0.57 | relative phosphorylation (R fixed, at +4): 0.547 | relative phosphorylation (R fixed, at -1): 0.98 | relative phosphorylation (R fixed, at -2): 0.895 | relative phosphorylation (R fixed, at -3): 3.45 | relative phosphorylation (R fixed, at -4): 1.41 | relative phosphorylation (R fixed, at -5): 0.759 | relative phosphorylation (V fixed, at +1): 0.686 | relative phosphorylation (V fixed, at +2): 0.96 | relative phosphorylation (V fixed, at +3): 0.802 | relative phosphorylation (V fixed, at +4): 0.713 | relative phosphorylation (V fixed, at -1): 0.48 | relative phosphorylation (V fixed, at -2): 0.701 | relative phosphorylation (V fixed, at -3): 0.323 | relative phosphorylation (V fixed, at -4): 1.05 | relative phosphorylation (V fixed, at -5): 1.25 | relative phosphorylation (W fixed, at +1): 0.94 | relative phosphorylation (W fixed, at +2): 1.01 | relative phosphorylation (W fixed, at +3): 1.18 | relative phosphorylation (W fixed, at +4): 0.874 | relative phosphorylation (W fixed, at -1): 0.682 | relative phosphorylation (W fixed, at -2): 1.2 | relative phosphorylation (W fixed, at -3): 0.857 | relative phosphorylation (W fixed, at -4): 0.829 | relative phosphorylation (W fixed, at -5): 1.32 | relative phosphorylation (Y fixed, at +1): 0.869 | relative phosphorylation (Y fixed, at +2): 0.921 | relative phosphorylation (Y fixed, at +3): 0.995 | relative phosphorylation (Y fixed, at +4): 0.886 | relative phosphorylation (Y fixed, at -1): 0.963 | relative phosphorylation (Y fixed, at -2): 1.39 | relative phosphorylation (Y fixed, at -3): 0.617 | relative phosphorylation (Y fixed, at -4): 0.902 | relative phosphorylation (Y fixed, at -5): 0.661 | relative phosphorylation (pThr fixed, at +1): 0.831 | relative phosphorylation (pThr fixed, at +2): 0.822 | relative phosphorylation (pThr fixed, at +3): 0.733 | relative phosphorylation (pThr fixed, at +4): 0.892 | relative phosphorylation (pThr fixed, at -1): 0.188 | relative phosphorylation (pThr fixed, at -2): 0.139 | relative phosphorylation (pThr fixed, at -3): 0.198 | relative phosphorylation (pThr fixed, at -4): 0.311 | relative phosphorylation (pThr fixed, at -5): 0.164 | relative phosphorylation (pTyr fixed, at +1): 0.821 | relative phosphorylation (pTyr fixed, at +2): 1.17 | relative phosphorylation (pTyr fixed, at +3): 0.94 | relative phosphorylation (pTyr fixed, at +4): 0.812 | relative phosphorylation (pTyr fixed, at -1): 0.495 | relative phosphorylation (pTyr fixed, at -2): 0.382 | relative phosphorylation (pTyr fixed, at -3): 0.193 | relative phosphorylation (pTyr fixed, at -4): 0.343 | relative phosphorylation (pTyr fixed, at -5): 0.443
